{
  "source": "patent US20180296694A1",
  "about": "(IMMUNOGEN, published 2018)",
  "binders": {"B1": {"name": "Mov19v1.6-GMBS-dAlalAla-PAB-DM1 (conjugate 4b) (antibody, human IgG1, kappa, V domains shown)", "VH": "QVQLVQSGAEVVKPGASVKISCKASGYTFTGYFMNWVKQSPGQSLEWIGRIHPYDGDTFYNQKFQGKATLTVDKSSNTAHMELLSLTSEDFAVYYCTRYDGSRAMDYWGQGTTVTVSS", "VL": "DIVLTQSPLSLAVSLGQPAIISCKASQSVSFAGTSLMHWYHQKPGQQPRLLIYRASNLEAGVPDRFSGSGSKTDFTLTISPVEAEDAATYYCQQSREYPYTFGGGTKLEIKR", "modifications": "D-Ala-L-Ala-PAB-DM1 linked through GMBS, about 3.5 DM/Ab"}, "B2": {"name": "conjugate 17h (antibody, human IgG1, kappa, V domains shown)", "VH": "QVQLVQSGAEVVKPGASVKISCKASGYTFTGYFMNWVKQSPGQSLEWIGRIHPYDGDTFYNQKFQGKATLTVDKSSNTAHMELLSLTSEDFAVYYCTRYDGSRAMDYWGQGTTVTVSS", "VL": "DIVLTQSPLSLAVSLGQPAIISCKASQSVSFAGTSLMHWYHQKPGQQPRLLIYRASNLEAGVPDRFSGSGSKTDFTLTISPVEAEDAATYYCQQSREYPYTFGGGTKLEIKR", "modifications": "thio-peptide-maytansinoid 14h linked through sulfo-GMBS to antibody amines (Example 4)"}, "B3": {"name": "conjugate 17i (antibody, human IgG1, kappa, V domains shown)", "VH": "QVQLVQSGAEVVKPGASVKISCKASGYTFTGYFMNWVKQSPGQSLEWIGRIHPYDGDTFYNQKFQGKATLTVDKSSNTAHMELLSLTSEDFAVYYCTRYDGSRAMDYWGQGTTVTVSS", "VL": "DIVLTQSPLSLAVSLGQPAIISCKASQSVSFAGTSLMHWYHQKPGQQPRLLIYRASNLEAGVPDRFSGSGSKTDFTLTISPVEAEDAATYYCQQSREYPYTFGGGTKLEIKR", "modifications": "thio-peptide-maytansinoid 14i linked through sulfo-GMBS to antibody amines (Example 4)"}, "B4": {"name": "conjugate 17g (antibody, human IgG1, kappa, V domains shown)", "VH": "QVQLVQSGAEVVKPGASVKISCKASGYTFTGYFMNWVKQSPGQSLEWIGRIHPYDGDTFYNQKFQGKATLTVDKSSNTAHMELLSLTSEDFAVYYCTRYDGSRAMDYWGQGTTVTVSS", "VL": "DIVLTQSPLSLAVSLGQPAIISCKASQSVSFAGTSLMHWYHQKPGQQPRLLIYRASNLEAGVPDRFSGSGSKTDFTLTISPVEAEDAATYYCQQSREYPYTFGGGTKLEIKR", "modifications": "thio-peptide-maytansinoid 14g linked through sulfo-GMBS to antibody amines (Example 4)"}, "B5": {"name": "M9346A-sGMBS-LDL-DM (conjugate 17c) (antibody, human IgG1, kappa, V domains shown)", "VH": "QVQLVQSGAEVVKPGASVKISCKASGYTFTGYFMNWVKQSPGQSLEWIGRIHPYDGDTFYNQKFQGKATLTVDKSSNTAHMELLSLTSEDFAVYYCTRYDGSRAMDYWGQGTTVTVSS", "VL": "DIVLTQSPLSLAVSLGQPAIISCKASQSVSFAGTSLMHWYHQKPGQQPRLLIYRASNLEAGVPDRFSGSGSKTDFTLTISPVEAEDAATYYCQQSREYPYTFGGGTKLEIKR", "modifications": "maytansinoid LDL-DM (compound 14c, L-Ala-D-Ala-L-Ala) linked through sulfo-GMBS to antibody amines, 3.7 mol LDL-DM/mol antibody"}},
  "data": [
    {"target": "folate receptor alpha (FRα) on cells (human, UniProt P15328 25-234)", "sequence (P15328 25-234)": "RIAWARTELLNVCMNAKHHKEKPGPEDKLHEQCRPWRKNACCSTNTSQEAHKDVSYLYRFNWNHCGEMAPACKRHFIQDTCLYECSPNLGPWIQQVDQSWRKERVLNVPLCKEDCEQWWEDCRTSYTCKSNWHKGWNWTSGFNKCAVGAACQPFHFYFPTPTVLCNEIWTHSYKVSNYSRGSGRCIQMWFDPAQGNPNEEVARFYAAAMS", "assay": "cell-based or functional assay", "units": {"IC50, in vitro cytotoxicity (WST-8, 5 days), Igrov-1 cells, +Block": "nM", "IC50, in vitro cytotoxicity (WST-8, 5 days), Igrov-1 cells, ADC": "nM", "IC50, in vitro cytotoxicity (WST-8, 5 days), Jeg-3 cells, +Block": "nM", "IC50, in vitro cytotoxicity (WST-8, 5 days), Jeg-3 cells, ADC": "nM", "IC50, in vitro cytotoxicity (WST-8, 5 days), KB cells, +Block": "nM", "IC50, in vitro cytotoxicity (WST-8, 5 days), KB cells, ADC": "nM", "IC50, in vitro cytotoxicity (WST-8, 5 days), SKOV-6 cells, +Block": "nM", "IC50, in vitro cytotoxicity (WST-8, 5 days), SKOV-6 cells, ADC": "nM"}, "values": [
      {"binder": "B1", "IC50, in vitro cytotoxicity (WST-8, 5 days), Igrov-1 cells, +Block": 20, "IC50, in vitro cytotoxicity (WST-8, 5 days), Igrov-1 cells, ADC": 0.3, "IC50, in vitro cytotoxicity (WST-8, 5 days), Jeg-3 cells, +Block": 10, "IC50, in vitro cytotoxicity (WST-8, 5 days), Jeg-3 cells, ADC": 0.2, "IC50, in vitro cytotoxicity (WST-8, 5 days), KB cells, +Block": "> 50", "IC50, in vitro cytotoxicity (WST-8, 5 days), KB cells, ADC": 0.2, "IC50, in vitro cytotoxicity (WST-8, 5 days), SKOV-6 cells, +Block": 10, "IC50, in vitro cytotoxicity (WST-8, 5 days), SKOV-6 cells, ADC": 0.9},
      {"binder": "B2", "IC50, in vitro cytotoxicity (WST-8, 5 days), Igrov-1 cells, +Block": "> 50", "IC50, in vitro cytotoxicity (WST-8, 5 days), Igrov-1 cells, ADC": 30, "IC50, in vitro cytotoxicity (WST-8, 5 days), Jeg-3 cells, +Block": "> 50", "IC50, in vitro cytotoxicity (WST-8, 5 days), Jeg-3 cells, ADC": 0.5, "IC50, in vitro cytotoxicity (WST-8, 5 days), KB cells, +Block": "> 50", "IC50, in vitro cytotoxicity (WST-8, 5 days), KB cells, ADC": 0.4, "IC50, in vitro cytotoxicity (WST-8, 5 days), SKOV-6 cells, +Block": "> 50", "IC50, in vitro cytotoxicity (WST-8, 5 days), SKOV-6 cells, ADC": "> 10"},
      {"binder": "B3", "IC50, in vitro cytotoxicity (WST-8, 5 days), Igrov-1 cells, +Block": "> 50", "IC50, in vitro cytotoxicity (WST-8, 5 days), Igrov-1 cells, ADC": 50, "IC50, in vitro cytotoxicity (WST-8, 5 days), Jeg-3 cells, +Block": "> 50", "IC50, in vitro cytotoxicity (WST-8, 5 days), Jeg-3 cells, ADC": 0.7, "IC50, in vitro cytotoxicity (WST-8, 5 days), KB cells, +Block": "> 50", "IC50, in vitro cytotoxicity (WST-8, 5 days), KB cells, ADC": 0.3, "IC50, in vitro cytotoxicity (WST-8, 5 days), SKOV-6 cells, +Block": "> 50", "IC50, in vitro cytotoxicity (WST-8, 5 days), SKOV-6 cells, ADC": "> 10"},
      {"binder": "B4", "IC50, in vitro cytotoxicity (WST-8, 5 days), Igrov-1 cells, +Block": "> 50", "IC50, in vitro cytotoxicity (WST-8, 5 days), Igrov-1 cells, ADC": 3, "IC50, in vitro cytotoxicity (WST-8, 5 days), Jeg-3 cells, +Block": "> 50", "IC50, in vitro cytotoxicity (WST-8, 5 days), Jeg-3 cells, ADC": 0.5, "IC50, in vitro cytotoxicity (WST-8, 5 days), KB cells, +Block": "> 50", "IC50, in vitro cytotoxicity (WST-8, 5 days), KB cells, ADC": 0.3, "IC50, in vitro cytotoxicity (WST-8, 5 days), SKOV-6 cells, +Block": "> 50", "IC50, in vitro cytotoxicity (WST-8, 5 days), SKOV-6 cells, ADC": "> 10"},
      {"binder": "B5", "IC50, in vitro cytotoxicity (WST-8, 5 days), Igrov-1 cells, +Block": "> 50", "IC50, in vitro cytotoxicity (WST-8, 5 days), Igrov-1 cells, ADC": 7, "IC50, in vitro cytotoxicity (WST-8, 5 days), Jeg-3 cells, +Block": "> 50", "IC50, in vitro cytotoxicity (WST-8, 5 days), Jeg-3 cells, ADC": 0.6, "IC50, in vitro cytotoxicity (WST-8, 5 days), KB cells, +Block": "> 50", "IC50, in vitro cytotoxicity (WST-8, 5 days), KB cells, ADC": 0.3, "IC50, in vitro cytotoxicity (WST-8, 5 days), SKOV-6 cells, +Block": "> 50", "IC50, in vitro cytotoxicity (WST-8, 5 days), SKOV-6 cells, ADC": "> 10"}
    ]}
  ]
}
